Test results as given in patent US20030229005A1.

Assays:
[1] = biological target: human Collagenase-3 (human) (UniProt P45452); test: cell-based or functional assay
collagenase 1 = collagenase 1 (UniProt P03956); test: cell-based or functional assay
collagenase 1, sequence (P03956 100-469 limits assumed): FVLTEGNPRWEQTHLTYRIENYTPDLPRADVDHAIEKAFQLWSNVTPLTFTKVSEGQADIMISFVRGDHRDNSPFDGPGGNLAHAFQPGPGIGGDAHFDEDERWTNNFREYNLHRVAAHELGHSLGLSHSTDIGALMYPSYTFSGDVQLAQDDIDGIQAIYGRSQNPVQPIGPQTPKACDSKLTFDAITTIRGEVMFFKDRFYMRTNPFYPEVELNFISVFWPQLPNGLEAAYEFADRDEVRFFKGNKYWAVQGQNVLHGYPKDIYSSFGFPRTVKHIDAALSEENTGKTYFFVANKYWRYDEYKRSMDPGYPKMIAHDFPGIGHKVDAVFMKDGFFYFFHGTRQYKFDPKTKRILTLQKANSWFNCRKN

bovine type II collagen (from UniProt P02459 182-1241)
Average Percent Inhibition, 0.10-1.10 h, TypeIICOL .18 ug/ul [1]: 6% | Average Percent Inhibition, 0.10-1.10 h, TypeIICOL .55 ug/ul [1]: 14% | Average Percent Inhibition, 1.10-2.10 h, TypeIICOL 1.6 ug/ul [1]: -4% | Average Percent Inhibition, 1.10-2.10 h, TypeIICOL 4.9 ug/ul [1]: -31% | Average Percent Inhibition, 1.10-2.10 h, TypeIICOL 15 ug/ul [1]: -48% | Average Percent Inhibition, 1.10-2.10 h, TypeIICOL 44 ug/ul [1]: -55% | Average Percent Inhibition, 1.10-2.10 h, TypeIICOL .18 ug/ul [1]: -9% | Average Percent Inhibition, 1.10-2.10 h, TypeIICOL .55 ug/ul [1]: -11% | Average Percent Inhibition, 2.10-3.10 h, TypeIICOL 1.6 ug/ul [1]: -15% | Average Percent Inhibition, 2.10-3.10 h, TypeIICOL 4.9 ug/ul [1]: -38% | Average Percent Inhibition, 2.10-3.10 h, TypeIICOL 15 ug/ul [1]: -59% | Average Percent Inhibition, 2.10-3.10 h, TypeIICOL 44 ug/ul [1]: -71% | Average Percent Inhibition, 2.10-3.10 h, TypeIICOL .18 ug/ul [1]: -10% | Average Percent Inhibition, 2.10-3.10 h, TypeIICOL .55 ug/ul [1]: -15% | Average Percent Inhibition, 3.10-4.10 h, TypeIICOL 1.6 ug/ul [1]: -13% | Average Percent Inhibition, 3.10-4.10 h, TypeIICOL 4.9 ug/ul [1]: -31% | Average Percent Inhibition, 3.10-4.10 h, TypeIICOL 15 ug/ul [1]: -50% | Average Percent Inhibition, 3.10-4.10 h, TypeIICOL 44 ug/ul [1]: -60% | Average Percent Inhibition, 3.10-4.10 h, TypeIICOL .18 ug/ul [1]: -8% | Average Percent Inhibition, 3.10-4.10 h, TypeIICOL .55 ug/ul [1]: -12% | Average Percent Inhibition, 4.10-5.10 h, TypeIICOL 1.6 ug/ul [1]: -12% | Average Percent Inhibition, 4.10-5.10 h, TypeIICOL 4.9 ug/ul [1]: -25% | Average Percent Inhibition, 4.10-5.10 h, TypeIICOL 15 ug/ul [1]: -41% | Average Percent Inhibition, 4.10-5.10 h, TypeIICOL 44 ug/ul [1]: -49% | Average Percent Inhibition, 4.10-5.10 h, TypeIICOL .18 ug/ul [1]: -7% | Average Percent Inhibition, 4.10-5.10 h, TypeIICOL .55 ug/ul [1]: -10% | Average Percent Inhibition, 5.10-6.10 h, TypeIICOL 1.6 ug/ul [1]: -11% | Average Percent Inhibition, 5.10-6.10 h, TypeIICOL 4.9 ug/ul [1]: -21% | Average Percent Inhibition, 5.10-6.10 h, TypeIICOL 15 ug/ul [1]: -34% | Average Percent Inhibition, 5.10-6.10 h, TypeIICOL 44 ug/ul [1]: -41% | Average Percent Inhibition, 5.10-6.10 h, TypeIICOL .18 ug/ul [1]: -6% | Average Percent Inhibition, 5.10-6.10 h, TypeIICOL .55 ug/ul [1]: -10% | Average Percent Inhibition from 1.1 to 6.6 Hours, Type II Collagen 0.18 ug/ml (collagenase 1): 0% | Average Percent Inhibition from 1.1 to 6.6 Hours, Type II Collagen 0.54 ug/ml (collagenase 1): 3% | Average Percent Inhibition from 1.1 to 6.6 Hours, Type II Collagen 1.63 ug/ml (collagenase 1): 0% | Average Percent Inhibition from 1.1 to 6.6 Hours, Type II Collagen 4.89 ug/ml (collagenase 1): 2% | Average Percent Inhibition from 1.1 to 6.6 Hours, Type II Collagen 14.67 ug/ml (collagenase 1): 10% | Average Percent Inhibition from 1.1 to 6.6 Hours, Type II Collagen 44.00 ug/ml (collagenase 1): 15% | Average Percent Inhibition, 0.10-1.10 h, TypeIICOL 1.6 ug/ul (collagenase 1): 19% | Average Percent Inhibition, 0.10-1.10 h, TypeIICOL 4.9 ug/ul (collagenase 1): 37% | Average Percent Inhibition, 0.10-1.10 h, TypeIICOL 15 ug/ul (collagenase 1): 44% | Average Percent Inhibition, 0.10-1.10 h, TypeIICOL 44 ug/ul (collagenase 1): 50% | Average Percent Inhibition, 0.10-1.10 h, TypeIICOL .18 ug/ul (collagenase 1): 17% | Average Percent Inhibition, 0.10-1.10 h, TypeIICOL .55 ug/ul (collagenase 1): 15% | Average Percent Inhibition, 1.10-2.10 h, TypeIICOL 1.6 ug/ul (collagenase 1): 6% | Average Percent Inhibition, 1.10-2.10 h, TypeIICOL 4.9 ug/ul (collagenase 1): 13% | Average Percent Inhibition, 1.10-2.10 h, TypeIICOL 15 ug/ul (collagenase 1): 21% | Average Percent Inhibition, 1.10-2.10 h, TypeIICOL 44 ug/ul (collagenase 1): 29% | Average Percent Inhibition, 1.10-2.10 h, TypeIICOL .18 ug/ul (collagenase 1): 3% | Average Percent Inhibition, 1.10-2.10 h, TypeIICOL .55 ug/ul (collagenase 1): 6% | Average Percent Inhibition, 2.10-3.10 h, TypeIICOL 1.6 ug/ul (collagenase 1): 0% | Average Percent Inhibition, 2.10-3.10 h, TypeIICOL 4.9 ug/ul (collagenase 1): 3% | Average Percent Inhibition, 2.10-3.10 h, TypeIICOL 15 ug/ul (collagenase 1): 12%
